In the experiment the target is T1, recombinant human CD123-Fc (human, UniProt P26951 19-305, limits assumed).
T1 construct: Panning and sorting antigen; not shown: Fc part
T1 sequence (looked up): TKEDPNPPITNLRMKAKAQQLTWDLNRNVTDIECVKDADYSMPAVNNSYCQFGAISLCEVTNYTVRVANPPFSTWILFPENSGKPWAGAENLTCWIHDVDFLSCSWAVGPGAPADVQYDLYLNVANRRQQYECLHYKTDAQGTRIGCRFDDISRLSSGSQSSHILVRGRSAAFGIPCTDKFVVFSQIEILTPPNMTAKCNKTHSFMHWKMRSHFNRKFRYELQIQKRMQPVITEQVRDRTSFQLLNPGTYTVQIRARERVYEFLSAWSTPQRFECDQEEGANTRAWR
In words: yeast display; 3 rounds of MACS and a FACS sort (top 1%) with CD123-Fc; clone sequenced from the sorted pool, not tested singly. How it is done: A large yeast display human naive single chain variable fragment (ScFv) antibody library was used to isolate anti-human CD123 antibodies described herein. The library was constructed using a collection of human antibody gene repertoires from more than 60 individuals. Three rounds of magnetic-activated cell sorting (MACS) were performed to enrich human ScFv binders to the recombinant human CD123-Fc. For the first round of yeast library panning, the yeast display ScFv library (5×10¹⁰ cells) was incubated with 5 μg/mL CD123-Fc in 15 ml PBSA (consisting of 0.1% Bovine Serum Albumin (BSA) in Dulbecco's phosphate-buffered saline (PBS) buffer), at room temperature on a rotator for 1.5 hours. After two times washing with 25 ml PBSA, the yeast library mix was incubated with 100 μL Protein G microbeads (Miltenyi Biotec) at room temperature on a rotator for 30 minutes. After one time washing, the library mix was resuspended in 50 ml of PBSA and loaded onto the MACS cell separation column (LS column). After three times washing with 10 ml PBSA. […] These eluted yeast cells were combined and then resuspended into 50 ml SDCAA medium (20 g D-glucose, 6.7 g BD Difco™ Yeast Nitrogen Base without Amino Acids, 5 g Bacto™ Casamino Acids, 5.4 g Na2·HPO4, and 8.56 g NaH2PO4·H2O in 1 L water) and amplified with shaking at 225 rpm at 30° C. for 20 hours. The amplified pool was then induced in SGCAA medium (consisting of the same composition of SDCAA medium, but containing galactose instead of glucose), with shaking at 225 rpm at 30° C. for another 16 hours and used for next round of panning. The same process was repeated two more times to enrich the CD123-Fc specific binders.
To further enrich the binders with higher affinity and better specificity, FACS based sorting was employed to isolate the strongest binders from the pool. The induced pool was incubated with 1 μg/ml of CD123-Fc at room temperature for 1 hour and then stained with Anti-c-Myc-Alexa 488 and Goat anti-Hu-Fc PE conjugates, the top 1% of the pool with the highest PE versus FITC signal was gated and sorted. The sorted pool was amplified in SDCAA medium and yeast plasmid DNA was extracted and transformed into bacterial for single clone DNA sequencing. 40 random clones were sequenced and 36 unique sequences were identified.

B1: CD123 hScFv binder M12318 (scFv)
scFv: EVQLVQSGGGVVQPGRSLRLSCAASGFTFSSYSMNWVRQAPGKGLEWVSSISSSSSYIYYADSVKGRFTISRDNAKNTLYLQMNSLRAEDTAVYYCARDNWGSLDYWGQGTLVTVSSGGGGSGGGGSGGGGSDIQMTQSPSSLSASVGDRVTITCQASQDISNYLNWYQQKPGKAPKLLIYDASNLETGVPSRFSGSGSGTDFTFTISSLQPEDIATYYCQQYDNLPHMYTFGQGTKLEIK
With B1, the binding result was “binds”.

B2: CD123 hScFv binder M12303 (scFv)
scFv: EVQLVETGAEVKKPGASVKVSCKASGYTFTTYYVHWVRQAPGQGLEWMGIINPSGGSTSYAQKFQGRVTMTRDTSTSTVYMELSSLRSEDTAVYYCARDGGLGGYEAWGQGTLVTVSSGGGGSGGGGSGGGGSDIQLTQSPSALSASAGDRVTITCQASQDISNYLNWYQQKPGKAPKLLIYDASNLERGVPSRFSGSGSGTEFTFTISSLQPEDIATYYCQQYDNLPITFGQGTRLEIK
With B2, the binding result is reported as “binds”.

B3: CD123 hScFv binder M12316 (scFv)
scFv: EVQLVESGGGLVQPGGSLRLSCAASGFTFSSYAMHWVRQAPGKGLEWVSSISSSSSYIYYADSVKGRFTISRDNSKNTLYLQMNSLRAEDTAVYYCARDWDDAFDIWGQGTTVTVSSGGGGSGGGGSGGGGSDIQMTQSPSSLSASVGDRVTITCQASQDISNYLNWYQQKPGKAPKLLIYDASNLETGVPSRFSGSGSGTDFTFTISSLQPEDIATYYCQQYDNLPLTFGGGTKLEIK
Consider B3, for which the binding result is listed as “binds”.

B4: CD123 hScFv binder M12313 (scFv)
scFv: EVQLVQSGAEVKKPGSSVKVSCKASGGTFSSYAISWVRQAPGQGLEWMGGIIPIFGTANYAQKFQGRVTITADESTSTAYMELSSLRSEDTAVYYCASQKGGGWSIDAFDIWGQGTMVTVSSGGGGSGGGGSGGGGSQSVLTQPPSVSAASGQRVTISCSGSSSNIGNNYASWYQQLPGMAPKLLIYEDNKRPSGISDRFSGSQSGTSASLAITGLQAEDEADYYCQSYDSSLSGDVVFGGGTKLTVLG
Turning to B4, the binding result was “binds”.

B5: CD123 hScFv binder M12317 (scFv)
scFv: QVQLVETGGGLVKPGGSLRLSCAASGFTFSSYSMNWVRQAPGKGLEWVSSISSSSSYIYYADSVKGRFTISRDNAKNSLYLQMNSLRAEDTAVYYCARDGDFWSGAIDYWGQGTLVTVSSGGGGSGGGGSGGGGSDIQLTQSPSSLSASVGDRVTITCQASQDISNYLNWYQQKPGKAPKLLIYDASNLETGVPSRFSGSGSGTDFTFTISSLQPEDIATYYCQQYDNLPLFGGGTKLEIK
As for B5, the binding result is given as “binds”.

B6: CD123 hScFv binder M12309 (scFv)
scFv: EVQLVQSGAEVKKPGATVKISCKVSGYTFTDYYMHWVQQAPGKGLEWIGLVDPEDGETIYAEKFQGRVTITADTSTDTAYMELSSLRSEDTAVYYCATAPLGEVGAAVDYWGQGTLVTVSSGGGGSGGGGSGGGGSHVILTQPPSVSAAPGQEVSISCSGSDANIGTNLVSWYQHVPGTAPKLLIYENSKRPSGIPARFSSSQSGTSATLAISGLQSGDEAIYYCLTWDRTLSGKIFGGGTQLTVLG
As to B6, the binding result is “binds”.

B7: CD123 hScFv binder M12305 (scFv)
scFv: QVQLVQSGAEVKKPGSSVKVSCKASGGTFSSYAISWVRQAPGQGLEWMGGIIPIFGTANYAQKFQGRVTITTDESTSTAYMELSSLRSEDTAVYYCARRGWGGFSSGSAFDIWGQGTMVTVSSGGGGSGGGGSGGGGSNFMLTQPHSVSESPGNTVTISCTGSSGTIGSNFVQWYQQSPGRAPTLLIYEDTKRPSGVPPRFAGSVDSSSNSASLTISGLKTEDEADYYCQSYDSSNWVFGGGTKLTVLG
For B7, the binding result is given as “binds”.

B8: CD123 hScFv binder M12315 (scFv)
scFv: QVQLQQWGAGLLKPSETLSLTCAVYGGSFSGYYWSWIRQPPGKGLEWIGEINHSGSTNYNPSLKSRVTISVDTSKNQFSLKLSSVTAADTAVYYCARGQVKYSSSLGYWGQGTLVTVSSGGGGSGGGGSGGGGSQSVLTQPPSVSAAPGQKVTISCSGSSSNIGNNFVSWYQQLPGTAPKLLIYEDNKRPSGIPDRFSGSRSGTSATLGITGLQTGDEADYYCGTWDSSLGAWVFGGGTKLTVLG
As for B8, the binding result is recorded as “binds”.

B9: CD123 hScFv binder M12306 (scFv)
scFv: EVQLVQSGSELKKPGASVKVSCKASGGTFSSYAISWVRQAPGQGLEWMGGIIPIFGTANYAQKFQGRVTITADESTSTAYMELSSLRSEDTAVYYCASTARRGWDTAGPLDYWGQGTLVTVSSGGGGSGGGGSGGGGSDIQMTQSPSSLSASVGDRVTIACRASQTISRYLNWYQQKPGKAPKLLIYAASSLQSGVSSRFSGSGSGTEFTLTISSLQPEDFATYFCQQTYSPPITFGQGTRLEIK
With B9, the binding result is “binds”.

B10: CD123 hScFv binder M12308 (scFv)
scFv: EVQLVETGAEVKNPGSSVKVSCKASGGTLSNYAISWVRQAPGKGLEWMGGIIPIFGTANYAQKFQGRVTITADESTSTAYMELSSLRSEDTAVYYCARRSSWYPEGCFQHWGQGTLVTVSSGGGGSGGGGSGGGGSDIQLTQSPSSLSASTGDRVTITCRASQGISSYLAWYQQKPGKAPKLLIYAASTLQSGVPSRFSGSGSGTDFTLTISCLQSEDFATYYCQQYYSYPLTFGGGTKLDIK
Turning to B10, the binding result was “binds”.

B11: CD123 hScFv binder M12311 (scFv)
scFv: EVQLVQSGAEVKKPGSSVKVSCKASGGTFSSYAISWVRQAPGQGLEWMGGIIPIFGTANYAQKFQGRVTITADESTSTAYMELSSLRSEDTAVYYCARARLGGAFDIWGQGTMVTVSSGGGGSGGGGSGGGGSQSVLTQPPSVSAAPGQKVTISCSGGSSNIGNHYVSWYQQLPGAAPKLLIYDDNKRPSGIPDRFSGSRSGTSATLGITGLQSGDEADYYCGTWDSSLAAHVFGTGTKVTVLG
As to B11, the binding result was “binds”.

B12: CD123 hScFv binder M12314 (scFv)
scFv: EVQLVQSGAEVKKPGSSVKVSCKASGGTFSSYAISWVRQAPGQGLEWMGGIIPIFGTANYAQKFQGRVTITADESTSTAYMELSSLRSEDTAVYYCARVGCSGGSCYPDYWGQGTLVTVSSGGGGSGGGGSGGGGSEIVLTQSPSSLSASVGDRVTITCQASQDISNYLNWYQQKPGKAPKLLIYDASNLETGVPSRFSGSGSGTDFTFTISSLQPEDIATYYCQQYDNLPLTFGGGTKLDIK
Take B12: the binding result is given as “binds”.
